{"source": "paper doi:10.1101/2020.02.12.946020", "target": "hMutLγ (MLH1-MLH3) (human, UniProt P40692;Q9UHC1 1-756;1-1453)", "sequence (P40692 whole entry, chain 1 of 2)": "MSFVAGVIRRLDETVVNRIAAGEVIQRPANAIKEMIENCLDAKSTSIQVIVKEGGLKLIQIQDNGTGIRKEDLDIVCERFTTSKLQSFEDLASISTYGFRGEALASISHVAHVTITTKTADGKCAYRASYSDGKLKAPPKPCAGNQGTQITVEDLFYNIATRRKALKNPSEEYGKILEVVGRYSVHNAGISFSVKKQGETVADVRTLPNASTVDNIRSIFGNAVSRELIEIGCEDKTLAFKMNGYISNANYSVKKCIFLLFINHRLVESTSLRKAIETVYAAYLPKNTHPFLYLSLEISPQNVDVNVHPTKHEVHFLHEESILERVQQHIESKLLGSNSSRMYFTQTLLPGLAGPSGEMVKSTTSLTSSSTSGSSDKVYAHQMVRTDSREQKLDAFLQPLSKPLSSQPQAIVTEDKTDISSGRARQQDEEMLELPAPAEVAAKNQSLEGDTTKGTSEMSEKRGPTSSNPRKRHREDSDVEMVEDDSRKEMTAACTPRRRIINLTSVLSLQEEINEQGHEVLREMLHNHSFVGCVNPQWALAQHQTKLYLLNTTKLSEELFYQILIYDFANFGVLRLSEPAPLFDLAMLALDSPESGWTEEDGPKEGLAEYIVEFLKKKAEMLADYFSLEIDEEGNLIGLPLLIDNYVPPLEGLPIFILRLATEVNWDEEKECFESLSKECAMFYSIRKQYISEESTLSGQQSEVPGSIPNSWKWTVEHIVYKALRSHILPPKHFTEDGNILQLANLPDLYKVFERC", "sequence (Q9UHC1 whole entry, chain 2 of 2)": "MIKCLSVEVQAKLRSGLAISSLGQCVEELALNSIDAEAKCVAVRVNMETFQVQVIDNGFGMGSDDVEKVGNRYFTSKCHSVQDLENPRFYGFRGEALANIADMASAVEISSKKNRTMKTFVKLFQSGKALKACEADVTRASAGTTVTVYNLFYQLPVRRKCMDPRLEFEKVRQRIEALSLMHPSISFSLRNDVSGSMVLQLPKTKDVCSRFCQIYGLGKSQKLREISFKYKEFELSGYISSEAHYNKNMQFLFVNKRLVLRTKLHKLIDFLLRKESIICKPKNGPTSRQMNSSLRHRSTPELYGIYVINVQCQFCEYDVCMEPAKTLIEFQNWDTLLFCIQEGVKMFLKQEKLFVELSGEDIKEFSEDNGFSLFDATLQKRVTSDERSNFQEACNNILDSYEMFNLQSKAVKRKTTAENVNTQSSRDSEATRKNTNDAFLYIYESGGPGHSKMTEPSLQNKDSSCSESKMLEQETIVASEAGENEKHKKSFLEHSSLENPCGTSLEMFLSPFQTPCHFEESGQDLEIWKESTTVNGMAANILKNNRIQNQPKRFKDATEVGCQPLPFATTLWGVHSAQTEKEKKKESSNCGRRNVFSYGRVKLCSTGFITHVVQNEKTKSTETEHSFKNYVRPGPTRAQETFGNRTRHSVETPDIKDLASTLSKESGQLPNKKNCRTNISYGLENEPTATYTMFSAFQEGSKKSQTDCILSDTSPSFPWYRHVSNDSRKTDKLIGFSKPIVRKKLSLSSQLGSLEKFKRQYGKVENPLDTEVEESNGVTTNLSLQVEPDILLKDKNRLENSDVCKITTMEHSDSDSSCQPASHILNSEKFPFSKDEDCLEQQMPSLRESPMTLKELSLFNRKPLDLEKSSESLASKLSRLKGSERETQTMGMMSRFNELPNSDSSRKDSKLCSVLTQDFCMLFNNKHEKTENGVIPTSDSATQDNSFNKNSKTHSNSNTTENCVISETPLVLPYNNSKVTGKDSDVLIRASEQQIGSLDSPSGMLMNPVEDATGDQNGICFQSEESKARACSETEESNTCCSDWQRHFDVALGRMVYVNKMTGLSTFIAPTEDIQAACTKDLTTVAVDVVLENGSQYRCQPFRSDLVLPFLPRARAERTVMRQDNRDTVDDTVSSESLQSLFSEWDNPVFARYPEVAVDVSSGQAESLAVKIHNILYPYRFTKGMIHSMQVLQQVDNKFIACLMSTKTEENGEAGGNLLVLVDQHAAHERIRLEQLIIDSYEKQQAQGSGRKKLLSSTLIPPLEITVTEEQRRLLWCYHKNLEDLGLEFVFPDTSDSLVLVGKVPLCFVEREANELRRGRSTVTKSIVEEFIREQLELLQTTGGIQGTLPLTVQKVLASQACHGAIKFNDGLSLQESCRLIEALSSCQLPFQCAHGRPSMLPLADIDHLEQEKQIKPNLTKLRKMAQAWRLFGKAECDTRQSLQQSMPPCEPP", "test": "EMSA"}
{"binder": "TTTTTTTTTTTTTTTTTTTTTTTTTTTTTTTTTTTTTTTT (ssDNA)", "note": "[40 nt poly-dT ssDNA (dT40)]", "values": [{"measurement": "binding result", "value": "binds"}]}
